Assay results reported in paper PMC11996864, “A small-molecule inhibitor of BCL10-MALT1 interaction abrogates progression of diffuse large B cell lymphoma” (The Journal of Clinical Investigation, 2025).
Several values for one entry are separate records, joined by “and”; a condition that tells them apart may be missing. Equal entries are not always repeated.

Assays:
BCL10 [1] = biological target: T1, BCL10 (Homo sapiens, UniProt O95999); assay: ELISA binding of recombinant MALT1 or GRK2 to immobilized BCL10; conditions: protein added to immobilized BCL10
T1 construct: Full-length GST-BCL10 (Abnova, catalog H00008915-P01) was immobilized onto a gold sensor chip surface; GST (N); purchased Abnova H00008915-P01
T1 sequence (O95999 1-233): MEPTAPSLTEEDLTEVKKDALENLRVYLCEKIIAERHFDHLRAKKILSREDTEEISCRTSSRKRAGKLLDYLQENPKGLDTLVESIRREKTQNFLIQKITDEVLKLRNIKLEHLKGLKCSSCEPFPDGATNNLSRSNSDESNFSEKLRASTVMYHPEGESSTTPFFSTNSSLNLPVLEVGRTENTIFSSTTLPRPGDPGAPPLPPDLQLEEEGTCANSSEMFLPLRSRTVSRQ
Description: ELISA-based protein-protein interaction assay. On a high-binding 96-well ELISA microplate (Greiner Cat# 655061), 100 ng of His-tagged recombinant human full-length BCL10 protein (Novus Cat# NBP1-99064) or in 100 µl PBS was allowed to adhere overnight at 4°C. The plate was blocked with 5% BSA in PBS for 1 hour at room temperature. After washing twice with PBS-T, a mixture of 100 ng of GST-tagged recombinant human full-length MALT1 protein (Novus Biologicals Cat# H00010892-P01) and compound that was preincubated for 1 hour in 100 μl PBS was added to the plate for 1 hour at room temperature. After washing three times with PBS-T, anti-MALT1 antibody (Cell Signaling Technology, Cat# 2494) in 5% BSA in PBS was added at 1:1000 dilution for 1 hour at room temperature. After washing three times with PBS-T, HRP-conjugated secondary antibody in 5% BSA in PBS was added at 1:5000 dilution for 1 hour at room temperature. After washing three times with PBS-T, 100 µl of 3,3’,5,5’-tetramethylbenzidine (TMB) substrate solution (Thermo Scientific, Cat# 34028) was added for up to 15 minutes, and 100 µl of 2 M sulfuric acid was added to stop the reaction. The plate was read at 450 nm using a spectrophotometer (Molecular Devices SpectraMax i3). […]

BCL10 [2] = biological target: T1, BCL10; assay: SPR binding of MALT1 protein fragments to immobilized BCL10
Description: Surface plasmon resonance (SPR) experiments were performed on a Biacore 2000 system (Cytiva). Full-length GST-BCL10 (Abnova, catalog H00008915-P01) was immobilized onto a gold sensor chip surface, and analyte solution containing MALT1(DD+Ig1-2), MALT1(DD), or MALT1(Ig1-2) purified protein was injected over the surface through a series of flow cells (see Supplemental Methods for details on protein purification). The binding kinetic parameters were obtained using the Langmuir model for global fitting with 1:1 binding ratio where one ligand molecule interacts with one analyte molecule. The equilibrium dissociation constant (KD) of M1i-124 to full-length GST-tagged MALT1 (Novus, catalog H00010892-P01) protein was determined by Creative Biolabs using Biacore T200. Full-length MALT1 protein was immobilized onto CM5 sensor chip surface, and M1i-124 was injected at concentrations of 0, 12.5, 25, 50, 100, and 200 μM. The steady-state affinity model was used to determine the KD.
Supplemental Materials and Methods
Cell lines and reagents. The DLBCL cell lines OCI-Ly1, OCI-Ly3, and OCI-Ly7 were provided by Mark D. Minden (University Health Network, Toronto, Ontario, Canada) , TMD8 cell line was provided by Louis Staudt (National Cancer Institute, NIH, Bethesda Maryland), and the BJAB cell line was provided by Mathijs Baens (Katholieke Universiteit Leuven, Leuven, Belgium). […]

Full-length GST-BCL10 = biological target: T2, Full-length GST-BCL10 (UniProt O95999 1-233); assay: SPR; Biacore 2000; full-length GST-BCL10 immobilised on a gold sensor chip surface, purified MALT1 fragments injected as analyte; Langmuir model, global fitting, 1:1 binding; conditions: both partners purified
T2 construct: BCL10, full length; also called immobilized BCL10; source: bought: Abnova, catalog H00008915-P01
T2 sequence (looked up): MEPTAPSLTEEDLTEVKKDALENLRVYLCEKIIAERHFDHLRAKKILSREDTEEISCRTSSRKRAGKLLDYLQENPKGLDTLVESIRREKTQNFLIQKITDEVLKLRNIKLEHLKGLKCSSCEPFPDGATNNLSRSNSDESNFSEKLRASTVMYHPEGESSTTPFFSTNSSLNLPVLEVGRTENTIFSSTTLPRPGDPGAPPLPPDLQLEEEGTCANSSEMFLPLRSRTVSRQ

Molecule: BCL10 + MALT1
- OD450 (BCL10 [1]): 0.851 and 0.825

Molecule: BCL10 + GRK2
- OD450 (BCL10 [1]): 0.226 and 0.156

B1: MALT1(DD): Recombinant human MALT1 fragment, death domain only (aa 29-124) (protein, UniProt Q9UDY8 29-124, looked up, fragment)
chain: TLNRLREPLLRRLSELLDQAPEGRGWRRLAELAGSRGRLRLSCLDLEQCSLKVLEPEGSPSLCLLKLMGEKGCTVTELSDFLQAMEHTEVLQLLSP
- binding to BCL10 (BCL10 [2]; result in words): no detectable binding

B2: MALT1(DD+Ig1-2) purified protein (domain or fragment)
chain: MSLLGDPLQALPPSAAPTGPLLAPPAGATLNRLREPLLRRLSELLDQAPEGRGWRRLAELAGSRGRLRLSCLDLEQCSLKVLEPEGSPSLCLLKLMGEKGCTVTELSDFLQAMEHTEVLQLLSPPGIKITVNPESKAVLAGQFVKLCCRATGHPFVQYQWFKMNKEIPNGNTSELIFNAVHVKDAGFYVCRVNNNFTFEFSQWSQLDVCDIPESFQRSVDGVSESKLQICVEPTSQKLMPGSTLVLQCVAVGSPIPHYQWFKNELPLTHETKKLYMVPYVDLEHQGTYWCHVYNDRDSQDSKKVEIIIDELNNLGHPDNKEQTTDQ
modifications: Printed as aa 1-326, MBP tag removed by TEV. Taken in isoform B numbering (lacks 309-319): the paper uses isoform B (C-terminus at 813), and the 3K0W construct, 199 residues after its tag and ending …
- Kd (Full-length GST-BCL10): 25 nM

B3: MALT1(Ig1-2) purified protein (domain or fragment)
chain: KITVNPESKAVLAGQFVKLCCRATGHPFVQYQWFKMNKEIPNGNTSELIFNAVHVKDAGFYVCRVNNNFTFEFSQWSQLDVCDIPESFQRSVDGVSESKLQICVEPTSQKLMPGSTLVLQCVAVGSPIPHYQWFKNELPLTHETKKLYMVPYVDLEHQGTYWCHVYNDRDSQDSKKVEIII
notes: MALT1, tandem Ig-like domains Ig1 and Ig2; PDB 3K0W is the published MALT1(Ig1-2) crystal structure, whose limits may differ from this construct; Host, tags and limits are in Supplemental Methods; source: purified protein (purification in Supplemental Methods)
- Kd (Full-length GST-BCL10): 29 nM

B4: MALT1(DD+Ig1-2): Recombinant human MALT1 fragment, death domain plus Ig1-2 domains (aa 1-326) (protein, UniProt Q9UDY8 1-326, looked up, fragment)
chain: MSLLGDPLQALPPSAAPTGPLLAPPAGATLNRLREPLLRRLSELLDQAPEGRGWRRLAELAGSRGRLRLSCLDLEQCSLKVLEPEGSPSLCLLKLMGEKGCTVTELSDFLQAMEHTEVLQLLSPPGIKITVNPESKAVLAGQFVKLCCRATGHPFVQYQWFKMNKEIPNGNTSELIFNAVHVKDAGFYVCRVNNNFTFEFSQWSQLDVCDIPESFQRSVDGVSESKLQICVEPTSQKLMPGSTLVLQCVAVGSPIPHYQWFKNELPLTHETKKLYMVPYVDLEHQGTYWCHVYNDRDSQDSKKVEIIIGRTDEAVECTEDELNNLG
- Kd (BCL10 [2]; MALT1 fragment over immobilized BCL10): 25 nM
